Results on 16 substances are retold here after article PMC5313200.

This assay has as its target mitochondrial antiviral signaling protein (MAVS), from pCMV-FLAG-MAVS (UniProt Q8VCF0). Put plainly: co-immunoprecipitation with quantitative western blot. Conditions: 293T cells co-transfected with MAVS and viperin mutant; at least 3 independent experiments; parent: est. 100; read off a plot.
As for “viperin (Virus Inhibitory Protein, Endoplasmic Reticulum-associated, interferon-inducible), wild type, from pcDNA3.1-viperin (from UniProt Q8CBB9) C84A”, the percent of parent is 93 % WT.

In the case of “viperin (Virus Inhibitory Protein, Endoplasmic Reticulum-associated, interferon-inducible), wild type, from pcDNA3.1-viperin (from UniProt Q8CBB9) F90A”, the percent of parent stood at 160 % WT. Under “viperin (Virus Inhibitory Protein, Endoplasmic Reticulum-associated, interferon-inducible), wild type, from pcDNA3.1-viperin (from UniProt Q8CBB9) G117A” stands 20 % WT; under “viperin (Virus Inhibitory Protein, Endoplasmic Reticulum-associated, interferon-inducible), wild type, from pcDNA3.1-viperin (from UniProt Q8CBB9) H79A”, 140 % WT; under “viperin (Virus Inhibitory Protein, Endoplasmic Reticulum-associated, interferon-inducible), wild type, from pcDNA3.1-viperin (from UniProt Q8CBB9) H93A”, 90 % WT. Take “viperin (Virus Inhibitory Protein, Endoplasmic Reticulum-associated, interferon-inducible), wild type, from pcDNA3.1-viperin (from UniProt Q8CBB9) K96A”: the percent of parent was determined as 81 % WT. “viperin (Virus Inhibitory Protein, Endoplasmic Reticulum-associated, interferon-inducible), wild type, from pcDNA3.1-viperin (from UniProt Q8CBB9) K120A”: the percent of parent stood at 12 % WT. With “viperin (Virus Inhibitory Protein, Endoplasmic Reticulum-associated, interferon-inducible), wild type, from pcDNA3.1-viperin (from UniProt Q8CBB9) N77A” the figure was 83 % WT. With “viperin (Virus Inhibitory Protein, Endoplasmic Reticulum-associated, interferon-inducible), wild type, from pcDNA3.1-viperin (from UniProt Q8CBB9) N85A” the figure was 100 % WT; with “viperin (Virus Inhibitory Protein, Endoplasmic Reticulum-associated, interferon-inducible), wild type, from pcDNA3.1-viperin (from UniProt Q8CBB9) P73A”, 220 % WT; with “viperin (Virus Inhibitory Protein, Endoplasmic Reticulum-associated, interferon-inducible), wild type, from pcDNA3.1-viperin (from UniProt Q8CBB9) R82A”, 66 % WT. Take “viperin (Virus Inhibitory Protein, Endoplasmic Reticulum-associated, interferon-inducible), wild type, from pcDNA3.1-viperin (from UniProt Q8CBB9) S75A”: the percent of parent stood at 57 % WT.

For “viperin (Virus Inhibitory Protein, Endoplasmic Reticulum-associated, interferon-inducible), wild type, from pcDNA3.1-viperin (from UniProt Q8CBB9) T81A”, the percent of parent turned out to be 240 % WT. Under “viperin (Virus Inhibitory Protein, Endoplasmic Reticulum-associated, interferon-inducible), wild type, from pcDNA3.1-viperin (from UniProt Q8CBB9) T94A” stands 30 % WT.

In the case of “viperin (Virus Inhibitory Protein, Endoplasmic Reticulum-associated, interferon-inducible), wild type, from pcDNA3.1-viperin (from UniProt Q8CBB9) T97A”, the percent of parent was 45 % WT. With “viperin (Virus Inhibitory Protein, Endoplasmic Reticulum-associated, interferon-inducible), wild type, from pcDNA3.1-viperin (from UniProt Q8CBB9) Y86A”, the percent of parent was found to be 120 % WT.
